Results: the supplement of paper PMC6757056
± gives the standard deviation of the averaged measurements.

B1: library; a variant is named by its letters at N, in order (parent)
chain: GCUGUCACCGAGAAACUGUGAAGUAUAUCUUAAACCUGGGCACUUAAAAGAUAUAUGGAGUUAGUAGUGCAACCUGCUCGGUCUGAUGAGUCCNNNNNNGGACGAAACAGC

What was measured:
cyclic di-GMP [1] = variants of: B1; experiment: FACS-Seq fitted mean relative fluorescence mCherry/BFP without ligand (log10 relative fluorescence); HEK293T; ligand: cyclic di-GMP (c-di-GMP-II aptamer); higher = higher reporter protein expression; settings: ligand present: no
Outline: (§1)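 Cells were sorted into 6 bins on the mCherry/BFP ratio after 48 h with or without ligand. These were enriched HEK293T cells transduced by lentivirus with a ribozyme-switch mCherry reporter plus an EF1α-BFP marker. Fluorescence was obtained by fitting a normal distribution to sequencing-derived bin counts. Counts came from MiSeq sequencing of PCR-amplified, barcoded genomic DNA, binned by log10(mCherry/BFP), with means scaled to five spiked-in control ribozymes.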

cyclic di-GMP [2] = variants of: B1; experiment: normalized RNA/DNA level without ligand (relative to sTRSVctl = 100) (log10 (% of sTRSVctl)); HEK293T; ligand: cyclic di-GMP (c-di-GMP-II aptamer); higher = less ribozyme self-cleavage, higher mRNA level; settings: reporter: mCherry (pCS4076), ligand present: no
Description: (§2)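 Hammerhead (sTRSV) ribozyme switch libraries with a ligand aptamer grafted on stem I and a randomized N4-6 loop II, cloned into the 3' UTR of mCherry and transiently transfected into HEK293T cells; RNA-Seq 72 h post transfection with ligand added 1 h before transfection; RNA read count / plasmid DNA read count normalized to the non-cleaving sTRSVctl (x100), log10; sequences with >100 DNA reads. FACS-Seq: lentiviral library sorted into 6 bins after 48 h ligand, log-normal fit mean of mCherry/BFP scaled to controls. Printed sequences are partial switch sequences.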

cyclic di-GMP [3] = variants of: B1; experiment: FACS-Seq fitted mean relative fluorescence mCherry/BFP with ligand (log10 relative fluorescence); HEK293T; ligand: cyclic di-GMP (c-di-GMP-II aptamer); ligand concentration (+) FACS-Seq: 1 mM; higher = higher reporter protein expression; settings: ligand present: yes
Outline: as §1

cyclic di-GMP [4] = variants of: B1; experiment: normalized RNA/DNA level with ligand (relative to sTRSVctl = 100) (log10 (% of sTRSVctl)); HEK293T; ligand: cyclic di-GMP (c-di-GMP-II aptamer); ligand concentration (+) RNA-Seq: 1 mM; higher = less ribozyme self-cleavage, higher mRNA level; settings: reporter: mCherry (pCS4076), ligand present: yes
Description: as §2

GCUGUCACCGAGAAACUGUGAAGUAUAUCUUAAACCUGGGCACUUAAAAGAUAUAUGGAGUUAGUAGUGCAACCUGCUCGGUCUGAUGAGUCCCAAACAGGACGAAACAGC [CAAACA]
FACS-Seq fitted mean (log10) (cyclic di-GMP [1]): -0.651 ± 0.025 | normalized RNA/DNA level without ligand (log10) (cyclic di-GMP [2]): 1.34 ± 0.069 | FACS-Seq fitted mean (log10) (cyclic di-GMP [3]): -0.439 ± 0.079 | normalized RNA/DNA level with ligand (log10) (cyclic di-GMP [4]): 1.62 ± 0.11

GCUGUCACCGAGAAACUGUGAAGUAUAUCUUAAACCUGGGCACUUAAAAGAUAUAUGGAGUUAGUAGUGCAACCUGCUCGGUCUGAUGAGUCCGUUCUGGGACGAAACAGC [GUUCUG]
FACS-Seq fitted mean (log10) (cyclic di-GMP [1]): -0.079 ± 0.018 | normalized RNA/DNA level without ligand (log10) (cyclic di-GMP [2]): 1.67 ± 0.021 | FACS-Seq fitted mean (log10) (cyclic di-GMP [3]): 0.284 ± 0.091 | normalized RNA/DNA level with ligand (log10) (cyclic di-GMP [4]): 1.84 ± 0.15

GCUGUCACCGAGAAACUGUGAAGUAUAUCUUAAACCUGGGCACUUAAAAGAUAUAUGGAGUUAGUAGUGCAACCUGCUCGGUCUGAUGAGUCCGCGCAUGGACGAAACAGC [GCGCAU]
FACS-Seq fitted mean (log10) (cyclic di-GMP [1]): -0.0572 ± 0.14 | normalized RNA/DNA level without ligand (log10) (cyclic di-GMP [2]): 1.66 ± 0.058 | FACS-Seq fitted mean (log10) (cyclic di-GMP [3]): 0.0686 ± 0.025 | normalized RNA/DNA level with ligand (log10) (cyclic di-GMP [4]): 1.8 ± 0.11

GCUGUCACCGAGAAACUGUGAAGUAUAUCUUAAACCUGGGCACUUAAAAGAUAUAUGGAGUUAGUAGUGCAACCUGCUCGGUCUGAUGAGUCCAACCUUGGACGAAACAGC [AACCUU]
FACS-Seq fitted mean (log10) (cyclic di-GMP [1]): -0.0813 ± 0.093 | normalized RNA/DNA level without ligand (log10) (cyclic di-GMP [2]): 1.66 ± 0.039 | FACS-Seq fitted mean (log10) (cyclic di-GMP [3]): 0.232 ± 0.016 | normalized RNA/DNA level with ligand (log10) (cyclic di-GMP [4]): 1.82 ± 0.11

GCUGUCACCGAGAAACUGUGAAGUAUAUCUUAAACCUGGGCACUUAAAAGAUAUAUGGAGUUAGUAGUGCAACCUGCUCGGUCUGAUGAGUCCCGGGAAGGACGAAACAGC [CGGGAA]
FACS-Seq fitted mean (log10) (cyclic di-GMP [1]): -0.636 ± 0.012 | normalized RNA/DNA level without ligand (log10) (cyclic di-GMP [2]): 1.33 ± 0.033 | FACS-Seq fitted mean (log10) (cyclic di-GMP [3]): -0.472 ± 0.015 | normalized RNA/DNA level with ligand (log10) (cyclic di-GMP [4]): 1.36 ± 0.081

GCUGUCACCGAGAAACUGUGAAGUAUAUCUUAAACCUGGGCACUUAAAAGAUAUAUGGAGUUAGUAGUGCAACCUGCUCGGUCUGAUGAGUCCUGGAACGGACGAAACAGC [UGGAAC]
FACS-Seq fitted mean (log10) (cyclic di-GMP [1]): -0.221 ± 0.031 | normalized RNA/DNA level without ligand (log10) (cyclic di-GMP [2]): 1.64 ± 0.033 | FACS-Seq fitted mean (log10) (cyclic di-GMP [3]): 0.11 ± 0.0057 | normalized RNA/DNA level with ligand (log10) (cyclic di-GMP [4]): 1.83 ± 0.075

GCUGUCACCGAGAAACUGUGAAGUAUAUCUUAAACCUGGGCACUUAAAAGAUAUAUGGAGUUAGUAGUGCAACCUGCUCGGUCUGAUGAGUCCUUACCCGGACGAAACAGC [UUACCC]
FACS-Seq fitted mean (log10) (cyclic di-GMP [1]): -0.256 ± 0.059 | normalized RNA/DNA level without ligand (log10) (cyclic di-GMP [2]): 1.798 ± 0.0066 | FACS-Seq fitted mean (log10) (cyclic di-GMP [3]): 0.0203 ± 0.12 | normalized RNA/DNA level with ligand (log10) (cyclic di-GMP [4]): 1.88 ± 0.11

GCUGUCACCGAGAAACUGUGAAGUAUAUCUUAAACCUGGGCACUUAAAAGAUAUAUGGAGUUAGUAGUGCAACCUGCUCGGUCUGAUGAGUCCCUGAAAGGACGAAACAGC [CUGAAA]
FACS-Seq fitted mean (log10) (cyclic di-GMP [1]): -0.638 ± 0.031 | normalized RNA/DNA level without ligand (log10) (cyclic di-GMP [2]): 1.28 ± 0.097 | FACS-Seq fitted mean (log10) (cyclic di-GMP [3]): -0.374 ± 0.059 | normalized RNA/DNA level with ligand (log10) (cyclic di-GMP [4]): 1.43 ± 0.12

GCUGUCACCGAGAAACUGUGAAGUAUAUCUUAAACCUGGGCACUUAAAAGAUAUAUGGAGUUAGUAGUGCAACCUGCUCGGUCUGAUGAGUCCCCGAAGGGACGAAACAGC [CCGAAG]
FACS-Seq fitted mean (log10) (cyclic di-GMP [1]): -0.589 ± 0.031 | normalized RNA/DNA level without ligand (log10) (cyclic di-GMP [2]): 1.31 ± 0.081 | FACS-Seq fitted mean (log10) (cyclic di-GMP [3]): -0.24 ± 0.0033 | normalized RNA/DNA level with ligand (log10) (cyclic di-GMP [4]): 1.51 ± 0.12

GCUGUCACCGAGAAACUGUGAAGUAUAUCUUAAACCUGGGCACUUAAAAGAUAUAUGGAGUUAGUAGUGCAACCUGCUCGGUCUGAUGAGUCCAGGAUGGGACGAAACAGC [AGGAUG]
FACS-Seq fitted mean (log10) (cyclic di-GMP [1]): -0.151 ± 0.021 | normalized RNA/DNA level without ligand (log10) (cyclic di-GMP [2]): 1.48 ± 0.054 | FACS-Seq fitted mean (log10) (cyclic di-GMP [3]): -0.029 ± 0.059 | normalized RNA/DNA level with ligand (log10) (cyclic di-GMP [4]): 1.63 ± 0.16

GCUGUCACCGAGAAACUGUGAAGUAUAUCUUAAACCUGGGCACUUAAAAGAUAUAUGGAGUUAGUAGUGCAACCUGCUCGGUCUGAUGAGUCCGAGACUGGACGAAACAGC [GAGACU]
FACS-Seq fitted mean (log10) (cyclic di-GMP [1]): -0.22 ± 0.13 | normalized RNA/DNA level without ligand (log10) (cyclic di-GMP [2]): 1.791 ± 0.013 | FACS-Seq fitted mean (log10) (cyclic di-GMP [3]): -0.00318 ± 0.073 | normalized RNA/DNA level with ligand (log10) (cyclic di-GMP [4]): 1.87 ± 0.12

GCUGUCACCGAGAAACUGUGAAGUAUAUCUUAAACCUGGGCACUUAAAAGAUAUAUGGAGUUAGUAGUGCAACCUGCUCGGUCUGAUGAGUCCUUACUAGGACGAAACAGC [UUACUA]
FACS-Seq fitted mean (log10) (cyclic di-GMP [1]): -0.111 ± 0.12 | normalized RNA/DNA level without ligand (log10) (cyclic di-GMP [2]): 1.64 ± 0.029 | FACS-Seq fitted mean (log10) (cyclic di-GMP [3]): 0.155 ± 0.095 | normalized RNA/DNA level with ligand (log10) (cyclic di-GMP [4]): 1.77 ± 0.13

GCUGUCACCGAGAAACUGUGAAGUAUAUCUUAAACCUGGGCACUUAAAAGAUAUAUGGAGUUAGUAGUGCAACCUGCUCGGUCUGAUGAGUCCCCAAUAGGACGAAACAGC [CCAAUA]
FACS-Seq fitted mean (log10) (cyclic di-GMP [1]): -0.5437 ± 0.0029 | normalized RNA/DNA level without ligand (log10) (cyclic di-GMP [2]): 1.36 ± 0.12 | FACS-Seq fitted mean (log10) (cyclic di-GMP [3]): -0.271 ± 0.066 | normalized RNA/DNA level with ligand (log10) (cyclic di-GMP [4]): 1.59 ± 0.11
